In the supplement of paper PMC6755084:

tested on: F1*sub RNA substrate (template-directed ligation); assay: fraction ligated after 30 min (ligated reads / total reads); higher = more ligase activity; sequences stand for … in GAGACCGCAACTGAAAAGTTGT…AGTTCTGCACGTAGAAGCAAAAGGC; conditions: 42 °C
Method in brief: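 Templates from an oligo pool were PCR-amplified, transcribed with T7 and gel-purified to give the ribozyme variants. Ligated and unligated products were separated on gel, reverse transcribed using barcoded primers, and read on a MiSeq. A quality filter of ≥20 was applied to core bases. Fraction ligated was taken as ligated reads as a share of all reads per variant.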

Compared with “TATCACTTGCGTAAGACACTTTGATGGGTTG [3d1693]”, “TATCACTTGCGTAAGACACTTTGATGGTTGA [3d1691]” is lower in fraction ligated: 0.725 for the first, 0.1 for the second.

First: TATCACTTGCGTAAGACACTTTGGAGGGTTA [3d1699]
Second: TATCACTTGCGTAAGACACTTTGGAGGGTTG [3d1700]
The fraction ligated of the first is higher: 0.122 for the first, 0.0669 for the second.

Compared with “TATCACTTGCGTAAGACACTTTGGAGGTTGA [3d1698]”, “TATCACTTGCGTAAGACACTTTGGATGGGTT [3d1703]” is higher in fraction ligated: 0.0604 for the first, 0.704 for the second.

First: TATCACTTGCGTAAGACACTTTGGATGGGTTA [2d177]
Second: TATCACTTGCGTAAGACACTTTGGATGGGTTG [2d178]
The fraction ligated of the first is lower: 0.822 for the first, 0.825 for the second.

Compared with TATCACTTGCGTAAGACACTTTGGATGGGTTGA [1d9], “TATCACTTGCGTAAGACACTTTGGATGGTTA [3d1701]” is lower in fraction ligated: 0.85 for the first, 0.227 for the second.

Compared with “TATCACTTGCGTAAGACACTTTGGATGGTTG [3d1702]”, “TATCACTTGCGTAAGACACTTTGGATGGTTGA [2d176]” is higher in fraction ligated: 0.208 for the first, 0.324 for the second.

Compared with “TATCACTTGCGTAAGACACTTTGGGGGTTGA [3d1694]”, “TATCACTTGCGTAAGACACTTTGGTGGGTTA [3d1696]” is lower in fraction ligated: 0.122 for the first, 0.0753 for the second.

Compared with “TATCACTTGCGTAAGACACTTTGGTGGGTTG [3d1697]”, “TATCACTTGCGTAAGACACTTTGGTGGTTGA [3d1695]” is higher in fraction ligated: 0.038 for the first, 0.0605 for the second.

First: TATCACTTGCGTAAGACACTTTGTGGGTTGA [3d1689]
Second: TATCACTTGCGTAAGACATTGGATGGGTTGA [3d1674]
The fraction ligated of the first is lower: 0.05 for the first, 0.802 for the second.

First: TATCACTTGCGTAAGACATTTGATGGGTTGA [3d1675]
Second: TATCACTTGCGTAAGACATTTGGAGGGTTGA [3d1677]
The fraction ligated of the first is higher: 0.574 for the first, 0.0596 for the second.

First: TATCACTTGCGTAAGACATTTGGATGGGTTA [3d1679]
Second: TATCACTTGCGTAAGACATTTGGATGGGTTG [3d1680]
The fraction ligated of the first is lower: 0.808 for the first, 0.84 for the second.

Compared with “TATCACTTGCGTAAGACATTTGGATGGTTGA [3d1678]”, “TATCACTTGCGTAAGACATTTGGTGGGTTGA [3d1676]” is lower in fraction ligated: 0.16 for the first, 0.0926 for the second.

Compared with “TATCACTTGCGTAAGACCTTGGATGGGTTGA [3d1667]”, “TATCACTTGCGTAAGACCTTTGATGGGTTGA [3d1668]” is lower in fraction ligated: 0.797 for the first, 0.789 for the second.

Compared with “TATCACTTGCGTAAGACCTTTGGAGGGTTGA [3d1670]”, “TATCACTTGCGTAAGACCTTTGGATGGGTTA [3d1672]” is higher in fraction ligated: 0.0866 for the first, 0.785 for the second.

Going from “TATCACTTGCGTAAGACCTTTGGATGGGTTG [3d1673]” to “TATCACTTGCGTAAGACCTTTGGATGGTTGA [3d1671]”, the fraction ligated falls from 0.81 to 0.176.

Going from “TATCACTTGCGTAAGACCTTTGGTGGGTTGA [3d1669]” to “TATCACTTGCGTAAGACTTTGGATGGGTTGA [3d1649]”, the fraction ligated rises from 0.137 to 0.849.

Compared with “TATCACTTGCGTAAGCACTTGGATGGGTTGA [3d1652]”, “TATCACTTGCGTAAGCACTTTGATGGGTTGA [3d1653]” is higher in fraction ligated: 0.792 for the first, 0.802 for the second.

Going from “TATCACTTGCGTAAGCACTTTGGAGGGTTGA [3d1655]” to “TATCACTTGCGTAAGCACTTTGGATGGGTTA [3d1657]”, the fraction ligated rises from 0.178 to 0.812.

Going from “TATCACTTGCGTAAGCACTTTGGATGGGTTG [3d1658]” to “TATCACTTGCGTAAGCACTTTGGATGGTTGA [3d1656]”, the fraction ligated falls from 0.832 to 0.705.

Compared with “TATCACTTGCGTAAGCACTTTGGTGGGTTGA [3d1654]”, “TATCACTTGCGTAAGCATTTGGATGGGTTGA [3d1651]” is higher in fraction ligated: 0.366 for the first, 0.83 for the second.

Going from “TATCACTTGCGTAAGCCTTTGGATGGGTTGA [3d1650]” to “TATCACTTGCGTAGAACTTTGGATGGGTTGA [3d1629]”, the fraction ligated rises from 0.806 to 0.862.

First: TATCACTTGCGTAGACACTTGGATGGGTTGA [3d1632]
Second: TATCACTTGCGTAGACACTTTGATGGGTTGA [3d1633]
The fraction ligated of the first is lower: 0.779 for the first, 0.803 for the second.

First: TATCACTTGCGTAGACACTTTGGAGGGTTGA [3d1635]
Second: TATCACTTGCGTAGACACTTTGGATGGGTTA [3d1637]
The fraction ligated of the first is lower: 0.105 for the first, 0.781 for the second.

Going from “TATCACTTGCGTAGACACTTTGGATGGGTTG [3d1638]” to “TATCACTTGCGTAGACACTTTGGATGGGTTGA [2d166]”, the fraction ligated rises from 0.816 to 0.835.

Going from “TATCACTTGCGTAGACACTTTGGATGGTTGA [3d1636]” to “TATCACTTGCGTAGACACTTTGGTGGGTTGA [3d1634]”, the fraction ligated falls from 0.296 to 0.0947.

Compared with “TATCACTTGCGTAGACATTTGGATGGGTTGA [3d1631]”, “TATCACTTGCGTAGACCTTTGGATGGGTTGA [3d1630]” is lower in fraction ligated: 0.821 for the first, 0.817 for the second.

First: TATCACTTGCGTAGCACTTTGGATGGGTTGA [3d1628]
Second: TATCACTTGCGTGACACTTTGGATGGGTTGA [3d1626]
The fraction ligated of the first is higher: 0.859 for the first, 0.829 for the second.

“TATCACTTGCTAAACACTTTGGATGGGTTGA [3d1601]” was tested, and the fraction ligated was 0.777.
